Experimental data from article PMC9775220, “Distal Mutations Shape Substrate-Binding Sites during Evolution of a Metallo-Oxidase into a Laccase” (ACS Catalysis, 2022).
Where a chain is given by its changes, count along the chain named. In names and notes the source's numbering stands.

B1: McoA (wild type) (Aquifex aeolicus VF5; DEL329-352/F55S/I199T/I441L/M449T/P58S/R471G) (protein)
chain: LSKQSLNIPGYSLFSDGQRVSITAKWTTLEVIPGKSTDMLVYEIDNEYNPVIFLRKGQTFSADFVNNSGEDSIIHWHGFRAPWKSDGHPYYAVKDGETYSYPDFTIIDRSGTYFYHPHPHGRTGYQVYYGLAGMIIIEDEDEDNLKQALDLEYGVTDIPLIIQDKTFDSSGQLVYNPMGHMGFWGDTILVNLTPNPYMDVERKIYRFRILNGSNARPYRLALLRGNQRMRFWVIGVEGGLLDTPKEVNEILVAPGERIDILVDFRDASVNDVIKLYNFPHNLIGMMGMADNSEFEVMEFRVTKDSAYDKSIPQRLSEVTPINTDGAQVQRITLGMRRMVFTINGETWEDGYANPQDINNPKVLFEQNNGDVVILEYVNNTGTYHPMHIHGFQFQVLERSLGPLGATDLGWKDTVIVAPMETVRIAVDMSHPYNEHQIYLLHCHILEHHDEGMMVNYRVNA
notes: 43-residue N-terminal Tat signal peptide removed in 2B3wsp and the shuffling parents (stated for wild type); expressed in E. coli Tuner delta-cueO from pET-21a(+); purified, Cu-loaded in vitro; monomer
B2: McoA (wild type) (Aquifex aeolicus VF5; F55S/I199T/I441L/M449T/P58S/R471G) (protein)
chain: LSKQSLNIPGYSLFSDGQRVSITAKWTTLEVIPGKSTDMLVYEIDNEYNPVIFLRKGQTFSADFVNNSGEDSIIHWHGFRAPWKSDGHPYYAVKDGETYSYPDFTIIDRSGTYFYHPHPHGRTGYQVYYGLAGMIIIEDEDEDNLKQALDLEYGVTDIPLIIQDKTFDSSGQLVYNPMGHMGFWGDTILVNLTPNPYMDVERKIYRFRILNGSNARPYRLALLRGNQRMRFWVIGVEGGLLDTPKEVNEILVAPGERIDILVDFRDASVNDVIKLYNFPHNLIGMGMIGMRMGMGMERGMGMGNGMNMDMGMADNSEFEVMEFRVTKDSAYDKSIPQRLSEVTPINTDGAQVQRITLGMRRMVFTINGETWEDGYANPQDINNPKVLFEQNNGDVVILEYVNNTGTYHPMHIHGFQFQVLERSLGPLGATDLGWKDTVIVAPMETVRIAVDMSHPYNEHQIYLLHCHILEHHDEGMMVNYRVNA
notes: as for B1
B3: McoA (wild type) (Aquifex aeolicus VF5; F55S/I199T/I441L/P58S/R471G) (protein)
chain: B2 chain with T406M
notes: as for B1
B4: McoA (wild type) (Aquifex aeolicus VF5; F55S/I199T/I441L/M449T/P58S) (protein)
chain: B2 chain with G428R
notes: as for B1
B5: McoA (wild type) (Aquifex aeolicus VF5; F55S) (protein)
chain: B2 chain with S15P, T156I, L398I, T406M, G428R
notes: as for B1
B6: McoA (wild type) (Aquifex aeolicus VF5; I199T) (protein)
chain: B2 chain with S12F, S15P, L398I, T406M, G428R
notes: as for B1
B7: McoA (wild type) (Aquifex aeolicus VF5) (protein)
chain: B2 chain with S12F, S15P, T156I, L398I, T406M, G428R
notes: as for B1
B8: McoA (wild type) (Aquifex aeolicus VF5; P58S) (protein)
chain: B2 chain with S12F, T156I, L398I, T406M, G428R
notes: as for B1
B9: McoA (wild type) (Aquifex aeolicus VF5; M449T) (protein)
chain: B2 chain with S12F, S15P, T156I, L398I, G428R
notes: as for B1
B10: McoA (wild type) (Aquifex aeolicus VF5; R471G) (protein)
chain: B2 chain with S12F, S15P, T156I, L398I, T406M
notes: as for B1
B11: McoA (wild type) (Aquifex aeolicus VF5; I441L) (protein)
chain: B2 chain with S12F, S15P, T156I, T406M, G428R
notes: as for B1

Substrate: CCn1c(=NN=c2sc3cc(S(=O)(=O)O)ccc3n2CC)sc2cc(S(=O)(=O)O)ccc21
Experiment: purified protein
Assay type: biochemical, Aquifex aeolicus
Conditions: pH 4, 40 °C
[1] = 2F4-loop 5 (Met-loop cut to five residues)

Row | Protein | Km (wild-type background) [µM] | kcat (wild-type background) [s⁻¹] | further results
1 | B1 |  |  | Km [1]: 3800 ± 600 µM; kcat [1]: 133 ± 20 s⁻¹
2 | B2 |  |  | Km (evolved variant 2F4): 1500 ± 400 µM; kcat (evolved variant 2F4): 273 ± 9 s⁻¹
3 | B3 |  |  | Km (reversion T449M in 2F4): 3100 ± 900 µM; kcat (reversion T449M in 2F4): 99 ± 8 s⁻¹
4 | B4 |  |  | Km (reversion G471R in 2F4): 6000 ± 1000 µM; kcat (reversion G471R in 2F4): 235 ± 9 s⁻¹
5 | B5 | 2400 ± 400 | 67 ± 4 | 
6 | B6 | 900 ± 200 | 27 ± 5 | 
7 | B7 |  |  | Km: 1300 ± 200 µM; kcat: 25 ± 3 s⁻¹
8 | B8 | 2500 ± 200 | 75 ± 3 | 
9 | B9 | 1000 ± 100 | 27 ± 1 | 
10 | B10 | 2300 ± 200 | 98 ± 4 | 
11 | B11 | 1500 ± 200 | 79 ± 5 | 
